Results reported in PMC7687367 (Immunity, 2020).

Biological target: T1, SARS-CoV-2 RBD, His-tagged, for antibody binding studies (SARS-CoV-2, UniProt P0DTC2)
T1 construct: source: HEK293F, transient, purified from supernatant (Ni-NTA agarose)
Experiment: BLI
Conditions: both partners purified

B1: COVA1-16 VH R100bS mutant (antibody, V domains shown)
VH: QVQLVQSGAEVKKPGASVKVSCKASGYTFTSYYMHWVRQAPGQGLEWMGIINSSGGSTSYAQKFQGRVTMTRDTSTSTVYMELSSLRSEDTAVYYCARPPRNYYDSSGYYQRAEYFQHWGQGTLVTVSS
VL: DIQLTQSPSSLSASVGDRVTITCQASQDISNYLNWYQQRPGKAPKLLIYDASNLETGVPSRFSGSGSGTDFTFTISSLQPEDIATYYCQQYDNPPLTFGGGTKLEIK
B1: binds.
